From US20130071390A1 (Merck Sharp & Dohme, published 2013) come the findings set out here.

The target of experiment [1] is T1, FcγRI (Fc receptor gamma-chain I, CD64) (UniProt P12314 16-288).
T1 construct: also called FcγR1
Nature of the experiment: FcγR ELISA. (In general: ELISA stands for enzyme-linked immunosorbent assay.)
Procedure: (§1) High protein binding 96-well plates (Corning Costar, Lowell, Mass.) were coated with 100 μl per well of Fcγ receptor solutions in PBS at the following concentrations: 1 μg/mL for FcγRI (R & D Systems) and FcγRIIa (Pichia pastoris produced), 2 μg/mL for FcγRIIb/c (P. pastoris produced), 0.4 μg/mL for FcγRIIIa-V158, and 0.8 μg/mL for FcγRIIIa-F158 (both P. pastoris produced).
(§2) For FcγRI, the antibody was coated in assay diluent (1% BSA, PBS, 0.05% Tween20) in monomeric form. For all other receptors, the antibody was coated after dimerization with alkaline phosphatase conjugated anti-human IgG F(ab′)₂ (Jackson ImmunoResearch, West Grove, Pa.) for one hour at room temperature. FcγRI bound antibody was also detected using the F(ab′)₂ and all plates were quantified by measuring excitation at 340 nm and emission at 465 nm after an 18 hour incubation with SuperPhosk (Virolabs, Chantilly, Va.).

The target of experiment [2] is T2, histidine-tagged extracellular domain of human Fc gamma receptor IIb/c (Pichia pastoris produced) (human, UniProt P31994 46-217).
T2 construct: also called FcγRIIb/c; FcγRIIb
T2 sequence: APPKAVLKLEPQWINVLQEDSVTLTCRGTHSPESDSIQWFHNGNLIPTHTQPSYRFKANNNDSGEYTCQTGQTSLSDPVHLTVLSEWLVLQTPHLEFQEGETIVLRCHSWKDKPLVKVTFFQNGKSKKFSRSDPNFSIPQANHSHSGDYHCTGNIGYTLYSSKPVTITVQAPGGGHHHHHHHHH
Nature of the experiment: FcγR ELISA, receptor coated on plate.
Procedure: as §1, §2

T1 sequence (P12314 16-288 limits assumed): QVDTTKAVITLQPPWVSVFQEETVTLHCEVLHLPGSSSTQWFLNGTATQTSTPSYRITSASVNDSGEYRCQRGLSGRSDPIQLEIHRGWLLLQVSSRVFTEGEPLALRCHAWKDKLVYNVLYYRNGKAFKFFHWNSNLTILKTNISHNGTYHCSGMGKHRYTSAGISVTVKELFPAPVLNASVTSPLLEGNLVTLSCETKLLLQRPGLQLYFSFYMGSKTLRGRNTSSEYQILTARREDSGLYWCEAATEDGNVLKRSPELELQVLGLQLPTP

B1: anti-PCSK9 double mutein antibody F243A/V264A produced in GFI6.0 (antibody, human IgG1, kappa)
heavy: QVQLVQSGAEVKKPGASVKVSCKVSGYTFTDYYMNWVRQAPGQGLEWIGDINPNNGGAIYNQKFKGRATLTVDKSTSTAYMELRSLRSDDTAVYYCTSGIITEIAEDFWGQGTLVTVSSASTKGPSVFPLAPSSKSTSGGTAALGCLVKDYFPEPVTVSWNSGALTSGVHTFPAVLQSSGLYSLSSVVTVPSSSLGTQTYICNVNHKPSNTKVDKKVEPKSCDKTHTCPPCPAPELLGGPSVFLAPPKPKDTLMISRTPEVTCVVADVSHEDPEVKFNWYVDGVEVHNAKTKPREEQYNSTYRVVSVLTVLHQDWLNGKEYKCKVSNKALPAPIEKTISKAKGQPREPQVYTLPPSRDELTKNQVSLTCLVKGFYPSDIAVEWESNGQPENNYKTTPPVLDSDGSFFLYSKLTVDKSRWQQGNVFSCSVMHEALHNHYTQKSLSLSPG
light: DIQMTQSPSSLSASVGDRVTITCKASQNVGTNVVWYQQKPGKAPKALIHSASYRYSGVPSRFSGSGSGTDFTLTISSLQPEDFATYYCQQYKTYPYTFGQGTKVEIKRTVAAPSVFIFPPSDEQLKSGTASVVCLLNNFYPREAKVQWKVDNALQSGNSQESVTEQDSKDSTYSLSSTLTLSKADYEKHKVYACEVTHQGLSSPVTKSFNRGEC
As to B1, the “fold reduction in binding vs parent antibody (produced in GFI5.0)” value in experiment [1] is around 4 fold. Moreover, the binding result in experiment [2] was “no binding”.
